Measurements reported in patent US20070224198A1 (GlaxoSmithKline, published 2007).
Positions count from the first letter of the chain named.

How the values were obtained:
[1] = molecular target: T1, Recombinant human Factor IX (rhFIX, Genetics Institute) (human, UniProt P00740 47-461); assay: titration calorimetry, 37 C, 10 mM CaCl2
Description: (§1) The interactions between rhFIX and SB 249417 , BC2 and other humanized constructs were characterized by titration microcalorimetry, which measures binding interactions in solution from the intrinsic heat of binding. Nine injections of 106 uM FIX were made into the calorimeter containing 2 uM mAb SB 249417. Binding was detected in the first 4 injections as exothermic heats. At the last 5 injections the mAb binding sites were saturated with FIX and only background heats of mixing were observed. […] Nonlinear least squares analysis of the data yield the binding affinity.

[2] = molecular target: T1, Recombinant human Factor IX (rhFIX, …); assay: titration calorimetry, calculated for 25 C by the van't Hoff equation, 10 mM CaCl2
Description: as §1

[3] = molecular target: T1, Recombinant human Factor IX (rhFIX, …); assay: SPR (BIAcore), calculated from kinetics
Description: (§2) The kinetics of Factor IX binding to SB 249417 was assessed by BIAcore analysis with antibody bound to an immobilized protein A surface. Recombinant human Factor IX (rhFIX, Genetics Institute) at 49 nM was used and measurements performed in the presence of 5 mM Ca²⁺.

[4] = molecular target: IX K5A (Factor IX having a lysine to alanine substitution at residue 5) (UniProt P00740 47-461, K5A); assay: SPR (BiaCore 2000), BC2 coupled to the chip, 200 nM construct, 5 mM CaCl2
IX K5A (Factor IX having a lysine to alanine substitution at residue 5), sequence (P00740 47-461 K51A): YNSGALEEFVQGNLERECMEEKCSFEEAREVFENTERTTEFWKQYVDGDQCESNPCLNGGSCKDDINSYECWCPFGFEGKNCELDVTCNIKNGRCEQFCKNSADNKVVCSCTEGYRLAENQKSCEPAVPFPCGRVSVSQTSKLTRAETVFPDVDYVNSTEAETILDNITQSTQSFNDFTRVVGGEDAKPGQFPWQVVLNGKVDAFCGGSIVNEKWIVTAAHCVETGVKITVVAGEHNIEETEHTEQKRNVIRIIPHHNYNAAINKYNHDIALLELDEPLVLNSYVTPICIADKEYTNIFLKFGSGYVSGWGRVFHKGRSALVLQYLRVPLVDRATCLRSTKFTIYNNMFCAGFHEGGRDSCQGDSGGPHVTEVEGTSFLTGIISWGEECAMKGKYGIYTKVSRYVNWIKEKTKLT
Description: (§3) A library of chimeric constructs composed of sequences of Factor IX spliced into the framework of the homologous protein Factor VII was constructed and used to map the epitope for the Factor IX BC2 mAb. See Cheung et al., Thromb. Res. 80, 419-427 (1995). Binding was measured using a BiaCore 2000 surface plasmon resonance device. The BC2 antibody was coupled directly to the chip using the NHS/EDC reaction. Binding was measured by 2 min of contact time at 20 uL/min with 200 nM of each of the given constructs in 25 mM MOPS, pH 7.4, 0.15 M NaCl, 5 mM CaCl2. Dissociation was monitored for 3 min using the same buffer with no protein. No binding was detected to the wild type construct in the presence of 50 mM EDTA.

[5] = molecular target: T1, Recombinant human Factor IX (rhFIX, …); assay: SPR (BIAcore), antibody bound to immobilized protein A, Factor IX in solution
Description: as §2

[6] = molecular target: human Factor IX (human, UniProt P00740 47-461); assay: cell-based or functional assay
human Factor IX, sequence (P00740 47-461 limits assumed): as the sequence (P00740 47-461 K51A) above, with A5K counted along it

[7] = molecular target: T1, Recombinant human Factor IX (rhFIX, …); assay: titration calorimetry
Description: as §1

[8] = molecular target: T2, Plasma VII (UniProt P08709 61-466); assay: SPR (BiaCore 2000), BC2 coupled to the chip, construct injected, 5 mM CaCl2
T2 construct: also called Factor VII
T2 sequence (looked up): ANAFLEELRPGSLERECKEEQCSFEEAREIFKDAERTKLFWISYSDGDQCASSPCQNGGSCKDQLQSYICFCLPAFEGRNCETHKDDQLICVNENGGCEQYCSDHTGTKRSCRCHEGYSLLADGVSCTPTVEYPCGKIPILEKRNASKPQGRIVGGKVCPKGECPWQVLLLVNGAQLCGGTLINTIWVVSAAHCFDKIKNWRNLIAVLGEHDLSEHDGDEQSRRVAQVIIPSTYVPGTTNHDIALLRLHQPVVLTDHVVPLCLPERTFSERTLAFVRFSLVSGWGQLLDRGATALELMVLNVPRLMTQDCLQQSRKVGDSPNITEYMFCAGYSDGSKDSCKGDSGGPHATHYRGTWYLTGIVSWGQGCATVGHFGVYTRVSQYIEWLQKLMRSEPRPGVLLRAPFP
Description: as §3

[9] = molecular target: T3, VII-A/IX (UniProt P08709 61-105; P00740 93-461, limits assumed); assay: as above
T3 construct: The make-up is read from the label by analogy with IX-A/VII
Description: as §3

[10] = molecular target: T1, Recombinant human Factor IX (rhFIX, …); assay: SPR (BIAcore), antibody bound to immobilized protein A, rhFIX in solution, 5 mM Ca2+
Description: as §2

[11] = molecular target: T1, Recombinant human Factor IX (rhFIX, …); assay: isothermal titration calorimetry
Description: as §1

[12] = molecular target: T1, Recombinant human Factor IX (rhFIX, …); assay: titration microcalorimetry, 106 uM FIX injected into 2 uM mAb
Description: as §1

[13] = molecular target: T1, Recombinant human Factor IX (rhFIX, …); assay: biosensor (BIAcore)
Description: as §2

[14] = molecular target: T1, Recombinant human Factor IX (rhFIX, …); assay: isothermal titration calorimetry, 25 C
Description: as §1

T1 sequence (P00740 47-461 limits assumed): as the sequence (P00740 47-461 K51A) above, with A5K counted along it

B1: murine anti-Factor IX monoclonal antibody BC2 (antibody, mouse IgG2a, V domains shown)
VH: QIQLVQSGPELKKPGETVKISCKASGYTFTNYGMNWVKQAPGKGLKWMGWINTRNGKSTYVDDFKGRFAFSLESSASTANLQIDNLKDEDTATYFCTREGNMDGYFPFTYWGQGTLVTVSA
VL: QIVLSQSPAILSASPGEKVTMTCRASSSVNYMHWYQQKPGSSPKPWIYATSNLASGVPARFSGSGSGTSYSLTISRVEAEDAATYYCQQWSINPRTFGGGTKLEIKR
notes: also called BC2 mAb; BC2 Antibody
- Kd [1]: 20 nM
- Kd [2]: 10 nM
- Kd [3]: 1.9 nM
- binding result [4]: binds
- koff [5]: 0.00091 s⁻¹
- kon [5]: 480000 M⁻¹ s⁻¹
- IC50, nM (aPTT clotting time of human plasma) [6]: ~50 nM
- Molar Binding Ratio FIX/mAb [7]: 1.4 FIX/mAb
- binding result [8]: no binding (tested: 200 nM)
- binding result [9]: no binding (tested: 200 nM)

B2: mouse-human chimeric anti-Factor IX monoclonal antibody chαFIX (antibody, V domains shown)
VH: B1 VH
VL: QIVLSQSPAILSASPGEKVTMTCRASSSVNYMHWYQQKPGSSPKPWIYATSNLASGVPARFSGSGSGTSYSLTISRVEAEDAATYYCQQWSINPRTFGGGTKLEIK
notes: BC2 variable regions with human constant regions; also called Chf9; F9CHHC / F9CHLC
- Kd [3]: 1.3 nM
- koff [5]: 0.0003 s⁻¹
- kon [5]: 240000 M⁻¹ s⁻¹

B3: humanized anti-human Factor IX monoclonal antibody SB 249417 (antibody, V domains shown)
VH: QVQLVQSGSELKKPGASVKVSCKASGYTFTNYGMNWVRQAPGQGLKWMGWINTRNGKSTYVDDFKGRFVFSLDSSVSTAYLQISSLKADDTAVYYCTREGNMDGYFPFTYWGQGTLVTVSS
VL: QIVLTQSPSSLSASVGDRVTITCRASSSVNYMHWYQQKPGKAPKPWIYATSNLASGVPSRFSGSGSGTDYTFTISSLQPEDIATYYCQQWSINPRTFGQGTKVEIKR
notes: also called F9HZHC 1-1 / F9HZLC 2-0
- Kd [1]: 12 nM
- Kd [2]: 4 nM
- Kd [3]: 1.9 nM
- koff [10]: 0.00041 s⁻¹
- kon [10]: 200000 M⁻¹ s⁻¹
- Stoichiometry of Factor IX Binding [11]: 1.5 moles Factor IX : 1 mole mAb
- molar binding ratio at the equivalence point [12]: ~2 FIX per mAb
- Kd [13]: 2 nM
- koff [13]: 0.0004 s⁻¹
- kon [13]: 200000 M⁻¹ s⁻¹
- Molar Binding Ratio FIX/mAb [7]: 1.5 FIX/mAb
- Kd [14]: 4 nM

B4: humanized anti-human Factor IX monoclonal antibody SB 257731 (antibody, human IgG1, V domains shown)
VH: B3 VH
VL: QIVLTQSPATLSLSPGERATLSCRASSSVNYMHWYQQRPGQAPKPWIYATSNLASGVPARFSGSGSGTDYTLTISSLEPEDFAVYYCQQWSINPRTFGGGTKVEIK
notes: Human IgG1 and kappa constant regions from the vectors; also called F9HZHC 1-1 / F9HZLC 1-3
- Kd [3]: 1.1 nM
- koff [5]: 0.00099 s⁻¹
- kon [5]: 920000 M⁻¹ s⁻¹

B5: humanized anti-human Factor IX monoclonal antibody SB 249415 (antibody, human IgG1, V domains shown)
VH: B3 VH
VL: EIVLTQSPATLSLSPGERATLSCRASSSVNYMHWYQQRPGQAPKPWIYATSNLASGVPARFSGSGSGTDFTLTISSLEPEDFAVYYCQQWSINPRTFGGGTKVEIKR
notes: Human IgG1 and kappa constant regions from the vectors; also called F9HZHC 1-1 / F9HZLC 1-1
- Kd [1]: 7 nM
- Kd [2]: 3 nM
- Kd [3]: 1.1 to 2.3 nM
- koff [5]: 0.00018 s⁻¹
- kon [5]: 750000 M⁻¹ s⁻¹
- Molar Binding Ratio FIX/mAb [7]: 1.7 FIX/mAb

B6: humanized anti-human Factor IX monoclonal antibody SB 257732 (antibody, human IgG1, V domains shown)
VH: B3 VH with V2I, K46E, S74T, D89E, Y95F
VL: B3 VL with F72L, I82F, Q99G, V103L
notes: Human IgG1 and kappa constant regions from the vectors; also called F9HZHC 3-0 / F9HZLC 3-0
- Kd [1]: 9 nM
- Kd [2]: 4 nM
- Kd [3]: 1.5 nM
- koff [5]: 0.0012 s⁻¹
- kon [5]: 1.1e+06 M⁻¹ s⁻¹
- Molar Binding Ratio FIX/mAb [7]: 1.8 FIX/mAb

B7: humanized anti-human Factor IX monoclonal antibody SB 249413 (antibody, human IgG1, V domains shown)
VH: B3 VH with K46E, S74T, T97A
VL: B5 VL with K44R, P45L, W46L, V57I
notes: also called F9HZHC 1-0 / F9HZLC 1-0
- Kd [1]: 12 nM
- Kd [2]: 6 nM
- Kd [3]: 3.7 to 5.1 nM
- koff [5]: 0.0028 s⁻¹
- kon [5]: 650000 M⁻¹ s⁻¹
- Molar Binding Ratio FIX/mAb [7]: 1.9 FIX/mAb

B8: humanized anti-human Factor IX monoclonal antibody SB 249416 (antibody, human IgG1, V domains shown)
VH: B3 VH
VL: B5 VL with F70Y
notes: Human IgG1 and kappa constant regions from the vectors; also called F9HZHC 1-1 / F9HZLC 1-2
- Kd [3]: 0.8 nM
- koff [5]: 0.00041 s⁻¹
- kon [5]: 520000 M⁻¹ s⁻¹
